# Laboratory results taken from patent publication US10357539B2, “Use of peptides that block metadherin-SND1 interaction as treatment for cancer” (THE TRUSTEES OF PRINCETON UNIVERSITY, priority 2014, dated 2019).
# B1: SN1/2 domains: SND1 N-terminal SN1/2 domains, amino acids 16-339 of SEQ ID NO: 2 (protein, listed as Homo sapiens)
# chain: VPTVQRGIIKMVLSGCAIIVRGQPRGGPPPERQINLSNIRAGNLARRAAATQPDAKDTPDEPWAFPAREFLRKKLIGKEVCFTIENKTPQGREYGMIYLGKDTNGENIAESLVAEGLATRREGMRANNPEQNRLSECEEQAKAAKKGMWSEGNGSHTIRDLKYTIENPRHFVDSHHQKPVNAIIEHVRDGSVVRALLLPDYYLVTVMLSGIKCPTFRREADGSETPEPFAAEAKFFTESRLLQRDVQIILESCHNQNILGTILHPNGNITELLLKEGFARCVDWSIAVYTRGAEKLRAAERFAKERRLRIWRDYVAPTANLDQK
# B2: SN3/4-TSN5 domains: SND1 C-terminal SN3/4-TSN5 domains, amino acids 340-885 of SEQ ID NO: 2 (protein, listed as Homo sapiens)
# chain: DKQFVAKVMQVLNADAIVVKLNSGDYKTIHLSSIRPPRLEGENTQDKNKKLRPLYDIPYMFEAREFLRKKLIGKKVNVTVDYIRPASPATETVPAFSERTCATVTIGGINIAEALVSKGLATVIRYRQDDDQRSSHYDELLAAEARAIKNGKGLHSKKEVPIHRVADISGDTQKAKQFLPFLQRAGRSEAVVEYVFSGSRLKLYLPKETCLITFLLAGIECPRGARNLPGLVQEGEPFSEEATLFTKELVLQREVEVEVESMDKAGNFIGWLHIDGANLSVLLVEHALSKVHFTAERSSYYKSLLSAEEAAKQKKEKVWAHYEEQPVEEVMPVLEEKERSASYKPVFVTEITDDLHFYVQDVETGTQLEKLMENMRNDIASHPPVEGSYAPRRGEFCIAKFVDGEWYRARVEKVESPAKIHVFYIDYGNREVLPSTRLGTLSPAFSTRVLPAQATEYAFAFIQVPQDDDARTDAVDSVVRDIQNTQCLLNVEHLSAGCPHVTLQFADSKGDVGLGLVKEGLVMVEVRKEKQFQKVITEYLNAQESA
# B3: W401A: MTDH mutant W401A (protein, UniProt Q86UE4 1-582, looked up, variant W401A)
# Protein LYRIC: MAARSWQDELAQQAEEGSARLREMLSVGLGFLRTELGLDLGLEPKRYPGWVILVGTGALGLLLLFLLGYGWAAACAGARKKRRSPPRKREEAAAVPAAAPDDLALLKNLRSEEQKKKNRKKLSEKPKPNGRTVEVAEGEAVRTPQSVTAKQPPEIDKKNEKSKKNKKKSKSDAKAVQNSSRHDGKEVDEGAWETKISHREKRQQRKRDKVLTDSGSLDSTIPGIENTITVTTEQLTTASFPVGSKKNKGDSHLNVQVSNFKSGKGDSTLQVSSGLNENLTVNGGGWNEKSVKLSSQISAGEEKWNSVSPASAGKRKTEPSAWSQDTGDANTNGKDWGRSWSDRSIFSGIGSTAEPVSQSTTSDYQWDVSRNQPYIDDEWSGLNGLSSADPNSDWNAPAEEAGNWVDEERASLLKSQEPIPDDQKVSDDDKEKGEGALPTGKSKKKKKKKKKQGEDNSTAQDTEELEKEIREDLPVNTSKTRPKQEKAFSLKTISTSDPAEVLVKNSQPIKTLPPATSTEPSVILSKSDSDKSSSQVPPILQETDKSKSNTKQNSVPPSQTKSETSWESPKQIKKKKKARRET
# B4: D389R: MTDH single point mutant D389R (protein, listed as Homo sapiens)
# chain: MAARSWQDELAQQAEEGSARLREMLSVGLGFLRTELGLDLGLEPKRYPGWVILVGTGALGLLLLFLLGYGWAAACAGSRKKRRSPPRKREEAAAVPAAAPDDLALLKNLRSEEQKKKNRKKLSEKPKPNGRTVEVAEGEAVRTPQSVTAKQPPEIDKKNEKSKKNKKKSKSDAKAVQNSSRHDGKEVDEGAWETKISHREKRQQRKRDKVLTDSGSLDSTIPGIENTITVTTEQLTTASFPVGSKKNKGDSHLNVQVSNFKSGKGDSTLQVSSGLNENLTVNGGGWNEKSVKLSSQISAGEEKWNSVSPASAGKRKAEPSAWSQDTGDANTNGKDWGRSWSDRSIFSGIGSTAEPVSQSTTSDYQWDVSRNQPYIDDEWSGLNGLSSARPNSDWNAPAEEWGNWVDEERASLLKSQEPIPDDQKVSDDDKEKGEGALPTGKSKKKKKKKKKQGEDNSTAQDTEELEKEIREDLPVNTSKTRPKQEKAFSLKTISTSDPAEVLVKNSQPIKTLPPATSTEPSVILSKSDSDKSSSQVPPILQETDKSKSNTKQNSVPPSQTKSETSWESPKQIKKKKKARRET
# Key:
# MTDH (364-582) = biological target: T1, MTDH (364-582) (Homo sapiens, UniProt Q86UE4); assay: GST-mediated pull-down of SND1 constructs and mutants by GST-tagged MTDH (364-582); format: binding; details: SND1 mutants in SND1 (16-339)
# T1 construct: made in house; host or cells: E. coli DH5α
# T1 sequence (Q86UE4 364-582): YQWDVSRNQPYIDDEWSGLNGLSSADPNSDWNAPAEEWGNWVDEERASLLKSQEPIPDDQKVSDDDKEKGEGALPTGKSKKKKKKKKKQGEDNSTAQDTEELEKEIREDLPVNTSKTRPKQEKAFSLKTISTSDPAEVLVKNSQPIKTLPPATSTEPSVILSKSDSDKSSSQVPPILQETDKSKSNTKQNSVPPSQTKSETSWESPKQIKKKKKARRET
# Excerpt: (§1) (FIG. 22A) In vitro pull-down of SND1 (16-339) by GST-tagged MTDH (364-582) harboring WT or mutant sequence. The proteins bound to GS4B were examined on SDS-PAGE and visualized by Coomassie blue staining. (FIG. 22B) In vitro pull-down of WT and mutant SND1 (16-339) by GST-tagged MTDH (364-582). The bound proteins were examined as in (FIG. 22A). For both (FIG. 22A) and (FIG. 22B), experiments were repeated three times; representative results are shown. The normalized percentage of binding was averaged from three experiments; mean±SEM was shown below the data. (FIG. 22C) HEK293T cells were transfected with human HA-SND1, WT Myc-MTDH or Myc-MTDH with indicated single point mutation. Lysates were immunoprecipitated with anti-Myc antibody and immunoblotted with the indicated antibodies. (FIG. 22D) HEK293T cells were transfected with human Myc-MTDH, WT HA-SND1 or mutant HA-SND1 with indicated single point mutations or deletions. Lysates were immunoprecipitated with anti-Myc and immunoblotted with the indicated antibodies.
# (§2) GST-Mediated Pull-Down Assay: ˜20 μg of GST-MTDH (different truncation forms and site mutants) was bound to 10 μl of glutathione resin via GST tag. The resin was washed with 200 μl assay buffer (25 mM Tris, PH8.0, 150 mM NaCl, 3 mM DTT) three times to remove the excess unbound protein. 15 μg of His-SND1 (16-339) was added to the resin in a 100 μl volume suspended in the assay buffer with 2 mg/ml of BSA. The mixture was washed with 200 μl assay buffer twice before examined by SDS-PAGE, and visualized by Coomassie blue staining. The experiments were repeated 3 times and the ratio of SND1 associated with GST-MTDH was analyzed by ImageJ.
# SND1 [1] = biological target: T2, SND1 (Homo sapiens, UniProt Q7KZF4); assay: Co-immunoprecipitation of full-length Myc-MTDH (WT or mutant) and HA-SND1 in HEK293T cells; format: cell-based; details: HEK293T cell lysates, immunoprecipitation and immunoblot
# T2 construct: Full-length HA-tagged SND1 was co-expressed with full-length Myc-tagged wild-type (WT) or mutant MTDH in HEK293T cells; expressed in transfected cells; host or cells: HEK293T
# T2 sequence (Q7KZF4 1-910): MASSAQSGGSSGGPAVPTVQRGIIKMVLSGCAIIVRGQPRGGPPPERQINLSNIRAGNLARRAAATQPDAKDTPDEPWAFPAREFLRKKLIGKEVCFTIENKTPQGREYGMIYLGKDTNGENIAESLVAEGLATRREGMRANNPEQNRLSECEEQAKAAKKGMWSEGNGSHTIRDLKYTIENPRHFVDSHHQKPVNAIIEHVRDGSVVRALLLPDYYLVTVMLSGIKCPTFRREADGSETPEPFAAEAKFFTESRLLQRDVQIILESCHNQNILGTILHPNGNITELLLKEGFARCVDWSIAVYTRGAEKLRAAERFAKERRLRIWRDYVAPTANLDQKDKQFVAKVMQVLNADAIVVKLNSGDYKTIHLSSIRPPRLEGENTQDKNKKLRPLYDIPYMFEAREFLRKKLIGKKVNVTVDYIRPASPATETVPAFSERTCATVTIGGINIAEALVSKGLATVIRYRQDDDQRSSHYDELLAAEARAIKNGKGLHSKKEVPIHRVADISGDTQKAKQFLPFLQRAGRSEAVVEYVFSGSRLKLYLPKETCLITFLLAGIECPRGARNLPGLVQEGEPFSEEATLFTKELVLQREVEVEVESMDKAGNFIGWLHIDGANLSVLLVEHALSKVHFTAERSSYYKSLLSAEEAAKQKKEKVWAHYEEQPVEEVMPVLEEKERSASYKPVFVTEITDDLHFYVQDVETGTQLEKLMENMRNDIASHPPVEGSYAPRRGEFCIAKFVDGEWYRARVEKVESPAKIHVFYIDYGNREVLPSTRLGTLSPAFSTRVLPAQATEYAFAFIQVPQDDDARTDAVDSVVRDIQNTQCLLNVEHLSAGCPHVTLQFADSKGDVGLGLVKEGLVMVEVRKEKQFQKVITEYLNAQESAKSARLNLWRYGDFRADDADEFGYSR
# Excerpt: (§3) FIGS. 7A-E represents determination of key regions and residues mediating the MTDH-SND1 interaction. (FIG. 7A) Schematics of MTDH fragments and mutants with indicated SND1-binding capability. + indicates binding and − indicates no binding based on results shown below. Two putative nuclear localization signals are residues 432-451 for NLS2 and residues 561-580 for NLS3. In the enlarged view of the minimal binding region 386-407, 9 residues were targeted for mutagenesis in the current study. […] (FIG. 7B) Pulldown of His6-SND1AC by GST-tagged MTDH fragments with indicated boundaries. The bound proteins were examined by SDS-PAGE and visualized by Coomassie blue staining. (FIG. 7C) Pulldown of His6-SND1ΔC by GST-tagged WT or triple mutant MTDH fragments (364-582). For (FIG. 7B) and (FIG. 7C), 1/10 of the His6-SND1ΔC input was shown, and GST alone was used as a negative control. Representative results of 3 independent experiments are shown. (FIG. 7D, FIG. 7E) Lysates from HEK293T cells expressing the indicated ectopic human SND1, AGO2 or MTDH were immunoprecipitated with anti-Myc and immunoblotted with the indicated antibodies.
# as §1
# Immunoprecipitation and western blot For immunoprecipitation (IP) experiments, cultured cells were washed in cold PBS and lysed in lysis buffer (20 mM Tris pH 7.4, 0.15 M NaCl, 1 mM EDTA, 1 mM EGTA, 1% Tx-100, 0.0025 M Na2P2O7, 1 mM α-glycerolphosphate, 1 mM Na3VO4, and 1 mM NaF) with an EDTA-free protease inhibitor mixture (Roche Applied Science) and PMSF. Cell lysates were then incubated on ice for 10 min, centrifuged, and precleared by incubating with protein A/G beads (Santa Cruz Biotechnology) for 1 h at 4° C. For IP bead preparation, 30 μl of protein A/G beads were incubated with 5 μg of antibodies for 2 h at 4° C. IPs were carried out for overnight at 4° C., and beads were centrifuged, washed and subsequently boiled for 5 min in SDS protein loading buffer to elute bound protein. IP lysates were subjected to western blotting with indicated antibodies.
# Immunoprecipitation and western blot: For in vivo immunoprecipitation (IP) experiments, cultured cells were washed in cold PBS and lysed in lysis buffer (20 mM Tris pH 7.4, 0.15 M NaCl, 1 mM EDTA, 1 mM EGTA, 1% Tx-100, 0.0025 M Na2P2O7, 1 mM β-glycerolphosphate, 1 mM Na3VO4, and 1 mM NaF) with an EDTA-free protease inhibitor mixture (Roche Applied Science) and PMSF. Cell lysates were then incubated on ice for 10 min, centrifuged, and precleared by incubating with protein A/G beads (Santa Cruz Biotechnology) for 1 h at 4° C. For IP bead preparation, 30 μl of protein A/G beads were incubated with 5 μg of antibodies for 2 h at 4° C. IPs were carried out for overnight at 4° C., and beads were centrifuged, washed and subsequently boiled for 5 min in SDS protein loading buffer to elute bound protein. IP lysates were subjected to western blotting with indicated antibodies.
# SND1 [2] = biological target: T3, SND1 (Homo sapiens, UniProt Q7KZF4); assay: GST-mediated pull-down of SND1 by GST-tagged MTDH fragments and mutants; format: binding; details: SND1 (16-339); GST-tagged MTDH (364-582)
# T3 construct: 15 μg of His-SND1 (16-339) was added to the resin; made in house; host or cells: E. coli DH5α
# T3 sequence (Q7KZF4 16-339): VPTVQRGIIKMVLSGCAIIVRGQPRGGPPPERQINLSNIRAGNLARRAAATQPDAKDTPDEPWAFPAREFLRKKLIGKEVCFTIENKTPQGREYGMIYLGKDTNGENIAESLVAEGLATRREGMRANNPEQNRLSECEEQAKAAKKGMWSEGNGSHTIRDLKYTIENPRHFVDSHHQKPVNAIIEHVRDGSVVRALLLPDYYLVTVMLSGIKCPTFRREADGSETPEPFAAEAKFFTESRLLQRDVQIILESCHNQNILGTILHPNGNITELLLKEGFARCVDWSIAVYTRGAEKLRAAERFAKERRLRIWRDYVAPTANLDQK
# Excerpt: as §3, §1, §2
Molecule,"MTDH-binding of SND1 domains and mutants, in vitro (MTDH (364-582))",interaction of full-length MTDH (WT or mutant) with HA-SND1 (SND1 [1]),"SND1-binding of MTDH (364-582) point mutants, in vitro (SND1 [2])"
B1,bind stoichiometrically with MTDH,,
B2,barely interact with MTDH,,
B3,,not,abolished or significantly reduced the interaction
B4,,did not affect the interaction,barely had any effect
